Key:
[1] = target: GST-syntaxin 1A cytoplasmic domain fusion protein (Syn 1A11, amino acids 4-266), immobilized on glutathione agarose beads (Schistosoma japonicum; rat); assay: 20S complex assembly on GST-syntaxin beads with SNAP-25, VAMP, α-SNAP and NSF added together, ATP, 25° C., Western blot densitometry, FIG. 6A
[2] = target: GST-syntaxin 1A H3 domain construct Syn 1A16 (amino acids 191-266) (Schistosoma japonicum; rat); assay: 20S complex on GST-Syn 1A16 beads, ATP and Mg++, Western blot densitometry
[3] = target: GST-syntaxin 1A deletion mutant Syn 1A6 (amino acids 4-190) (Schistosoma japonicum; rat); assay: GST-syntaxin deletion mutant on glutathione beads, soluble ligand, Western blot densitometry; FIG. 4C row 3 from top, row label only in the figure (assigned by Table 1 order and paragraph 328)
[4] = target: GST-syntaxin 1A H3 domain construct Syn 1A16 (amino acids 191-266) (Schistosoma japonicum; rat); assay: 20S complex assembly on GST-syntaxin beads with all four proteins together, ATP, 18° C. overnight MgCl2, Western blot densitometry, FIG. 6B
[5] = target: GST-syntaxin 1A cytoplasmic domain fusion protein (Syn 1A11, amino acids 4-266), immobilized on glutathione agarose beads (Schistosoma japonicum; rat); assay: as above
[6] = target: GST-syntaxin 1A deletion mutant Syn 1A13 (amino acids 4-221) (Schistosoma japonicum; rat); assay: as above
[7] = target: GST-syntaxin 1A deletion mutant Syn 1A6 (amino acids 4-190) (Schistosoma japonicum; rat); assay: as above
[8] = target: GST-syntaxin 1A deletion mutant Syn 1A17 (amino acids 4-240) (Schistosoma japonicum; rat); assay: as above
[9] = target: GST-syntaxin 1A deletion mutant Syn 1A5 (amino acids 4-114) (Schistosoma japonicum; rat); assay: GST-syntaxin deletion mutant on glutathione beads, soluble ligand, Western blot densitometry; FIG. 4C row 2 from top, row label only in the figure (assigned by Table 1 order and paragraph 328)
[10] = target: GST-syntaxin 1A H3 domain construct Syn 1A16 (amino acids 191-266) (Schistosoma japonicum; rat); assay: 20S complex assembly on GST-syntaxin beads with all four proteins together, ATPγS, 18° C. overnight MgCl2, Western blot densitometry, FIG. 6B
[11] = target: GST-syntaxin 1A cytoplasmic domain fusion protein (Syn 1A11, amino acids 4-266), immobilized on glutathione agarose beads (Schistosoma japonicum; rat); assay: as above
[12] = target: GST-syntaxin 1A deletion mutant Syn 1A6 (amino acids 4-190) (Schistosoma japonicum; rat); assay: as above
[13] = target: GST-syntaxin 1A deletion mutant Syn 1A17 (amino acids 4-240) (Schistosoma japonicum; rat); assay: as above
[14] = target: GST-syntaxin 1A cytoplasmic domain fusion protein (Syn 1A11, amino acids 4-266), immobilized on glutathione agarose beads (Schistosoma japonicum; rat); assay: GST-syntaxin 1A (wild type) on glutathione beads, soluble ligand, Western blot densitometry, FIG. 5B
[15] = target: GST-syntaxin 1A deletion mutant Syn 1A13 (amino acids 4-221) (Schistosoma japonicum; rat); assay: GST-syntaxin deletion mutant on glutathione beads, soluble ligand, Western blot densitometry; FIG. 4C row 4 from top, row label only in the figure (assigned by Table 1 order and paragraph 328)
[16] = target: GST-syntaxin 1A (Syn1A11) point mutant M5: I230A, I233A (Schistosoma japonicum; rat); assay: GST-syntaxin point mutant on glutathione beads, soluble ligand, Western blot densitometry, FIG. 5B
[17] = target: GST-syntaxin 1A (Syn1A11) point mutant 45 (Schistosoma japonicum; rat); assay: as above
[18] = target: GST-syntaxin 1A (Syn1A11) point mutant M3: L212A, F216A (Schistosoma japonicum; rat); assay: as above
[19] = target: GST-syntaxin 1A (Syn1A11) point mutant M4: V223A, Q226A (Schistosoma japonicum; rat); assay: as above
[20] = target: GST-syntaxin 1A (Syn1A11) point mutant M6: A240V, V244A (Schistosoma japonicum; rat); assay: as above
[21] = target: GST-syntaxin 1A (Syn1A11) point mutant 34 (Schistosoma japonicum; rat); assay: as above
[22] = target: GST-syntaxin 1A (Syn1A11) point mutant 13 (four point mutations) (Schistosoma japonicum; rat); assay: as above
[23] = target: GST-syntaxin 1A (Syn1A11) point mutant M2: L205A, I209A (Schistosoma japonicum; rat); assay: as above
[24] = target: GST-syntaxin 1A (Syn1A11) point mutant 12 (four point mutations) (Schistosoma japonicum; rat); assay: as above
[25] = target: GST-syntaxin 1A (Syn1A11) point mutant M1: R198A, I202A (Schistosoma japonicum; rat); assay: as above

SNAP-25 (synaptosomal-associated protein of 25 kDa), soluble recombinant, sequence (chain): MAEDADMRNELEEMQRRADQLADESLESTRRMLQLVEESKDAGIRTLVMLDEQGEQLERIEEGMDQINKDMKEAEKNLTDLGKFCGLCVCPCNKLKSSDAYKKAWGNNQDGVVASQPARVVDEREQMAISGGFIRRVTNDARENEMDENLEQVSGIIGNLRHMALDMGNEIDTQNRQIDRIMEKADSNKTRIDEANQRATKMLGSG
His-tagged α-SNAP (soluble NSF attachment protein), soluble recombinant, sequence (P81125 whole entry): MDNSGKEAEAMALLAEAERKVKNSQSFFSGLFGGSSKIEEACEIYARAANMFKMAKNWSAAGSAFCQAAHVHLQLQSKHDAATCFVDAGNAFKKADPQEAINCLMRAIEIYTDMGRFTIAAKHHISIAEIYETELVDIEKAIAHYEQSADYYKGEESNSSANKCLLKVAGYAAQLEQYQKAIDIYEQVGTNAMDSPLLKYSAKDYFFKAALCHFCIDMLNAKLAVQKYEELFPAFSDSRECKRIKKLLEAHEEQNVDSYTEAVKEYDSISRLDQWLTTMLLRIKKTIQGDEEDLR

| densitometry pixel value [1] [pixel value] | percent dissociated in the presence of ATP and Mg++ [2] [%] | densitometry pixel value [3] [pixel value] | densitometry pixel value [4] [pixel value] | densitometry pixel value [5] [pixel value] | densitometry pixel value [6] [pixel value] | densitometry pixel value [7] [pixel value] | densitometry pixel value [8] [pixel value] | densitometry pixel value [9] [pixel value] | densitometry pixel value [10] [pixel value] | densitometry pixel value [11] [pixel value] | densitometry pixel value [12] [pixel value] | densitometry pixel value [13] [pixel value] | densitometry pixel value [14] [pixel value] | densitometry pixel value [15] [pixel value] | densitometry pixel value [16] [pixel value] | densitometry pixel value [17] [pixel value] | densitometry pixel value [18] [pixel value] | densitometry pixel value [19] [pixel value] | densitometry pixel value [20] [pixel value] | Substance | other results |
| --- | --- | --- | --- | --- | --- | --- | --- | --- | --- | --- | --- | --- | --- | --- | --- | --- | --- | --- | --- | --- | --- |
| 132 | 0 | 0 | 1540 | 331 | 0 | 0 | 793 | 0 | 1420 | 1040 | 0 | 1070 | 414 | 0 | 25 | 7 | 23 | 43 | 633 | His-tagged α-SNAP (soluble NSF attachment protein), soluble recombinant (from UniProt P81125) | densitometry pixel value [21]: 10 pixel value; densitometry pixel value [22]: 15 pixel value; densitometry pixel value [23]: 36 pixel value; densitometry pixel value [24]: 23 pixel value; densitometry pixel value [25]: 53 pixel value |
| 768 | 5 | 9 | 484 | 75 | 1310 | 0 | 546 | 19 | 504 | 85 | 0 | 415 | 555 | 417 | 824 | 640 | 866 | 754 | 875 | SNAP-25 (synaptosomal-associated protein of 25 kDa), soluble recombinant | densitometry pixel value [21]: 712 pixel value; densitometry pixel value [22]: 143 pixel value; densitometry pixel value [23]: 672 pixel value; densitometry pixel value [24]: 361 pixel value; densitometry pixel value [25]: 586 pixel value |
| 32 | 0 | 0 | 951 | 133 | 1560 | 0 | 903 | 0 | 944 | 691 | 0 | 812 | 2610 | 0 | 0 | 0 | 0 | 0 | 0 | VAMP (vesicle-associated membrane protein; VAMP 2), soluble recombinant | densitometry pixel value [21]: 0 pixel value; densitometry pixel value [22]: 0 pixel value; densitometry pixel value [23]: 17 pixel value; densitometry pixel value [24]: 0 pixel value; densitometry pixel value [25]: 37 pixel value |

Source: patent US5693476
